Results taken from patent US20250163410.

Tested on: VchCAST TnsB transposase (Tn6677; assayed with TnsA-TnsC and TniQ-Cascade) (Vibrio cholerae)
Experiment: cell_activity
Conditions: T-RL; for binding signal: no IPTG

ACATTTGTTGATACAACCATAAAATGATAATTACACCCATAAATTGATAATTATCACACCCATAAATTGATATTGCCTCTGTACGATCCAGTGATCTCCAAGACGCTGCAAGAGTCCGCACCGACAC (double strand) [Right end hyperactive 2702]
binding signal: 1.71 fold vs WT

ACATTTGTTGATACAACCATAATATGATAATTACACCCATAAATTGATAATTATCACACCCATAAATTGATATTGCCTCTGATCATAGTCAGACCAACATTGCTACGACCCGTATTCGCACCGACAC (double strand) [Right end variant 1017]
binding signal (log2 fold vs WT) (second replicate 1.4722): 1.36

ACATTCGTTGATACAACCATAAAATGATAATTACACCCATAAATTGATAATTATCACACCCATAAATTGATATTGCCTCTGATCATAGTCAGACCAACATTGCTACGACCCGTATTCGCACCGACAC (double strand) [Right end variant 1070]
binding signal (log2 fold vs WT) (second replicate): -1.95

TTTTGTGTTGAAACAACCATAAAGTGATAACAACGAATCAATTAAAATCATAGGCTTAATCGAAAAACAACCATATATTGATATCTCATAAAACAACCATAAGTTGATATTTTGGTGAAAAGGATATTCCAACCTTCATAGTTTAGTAAGAA (double strand) [Left end hyperactive 4669]
binding signal: 1.69 fold vs WT

AATGTTGTTGATGCAACCATAAAGTGATATTTAATAATTATTTATAATCAGCAACTTAACCTCAAAACAACCATATATTGATATCTCACAAAACAACCATAAGTTGATATTTTTGTGAATCGAGTATTTCAGCAAAACTACTGCAGTAAGAA (double strand) [Left end variant 3295]
binding signal (log2 fold vs WT) (second replicate 1.3754): 0.963

AATGTTGTTGATGCAACCATAAAGTGATATTTACGAATCAATTAAAATCATAGGCTTAATCGAAAAACAACCATATATTGATATCTCATAAAACAACCATAAGTTGATATTTTGGTGAAAAGGATATTCCAACCTTCATAGTTTAGTAAGAA (double strand) [Left end hyperactive 4666]
binding signal: 2.58 fold vs WT

ACATTGGTTGATACAACCATAAAATGATAATTACACCCATAAATTGATAATTATCACACCCATAAATTGATATTGCCTCTGATCATAGTCAGACCAACATTGCTACGACCCGTATTCGCACCGACAC (double strand) [Right end variant 1069]
binding signal (log2 fold vs WT) (second replicate -6.7160): -6.61

AATGTTGTTGATGCAACCATAAAGTGATATTTAATAATTATTTATAATCAGCAACTGAACCACAAAACAACCATATATTGATATCTCACAAAACAACCATAAGTTGATATTTTTGTGAATCGAGTATTTCAGCAAAACTACTGCAGTAAGAA (double strand) [Left end variant 3311]
binding signal (log2 fold vs WT) (second replicate -0.9350): -1.73

ACATTTGTTGATACAACCATAAAATGATAATTACACCCATAAATTGATAATTATCACACCCATAAATTGATATTGCCTCTGTTGGCGCCCGGCCCTCAGGCCCTGCAGTGAGTTCCAGCACCGACAC (double strand) [Right end hyperactive 2699]
binding signal: 1.77 fold vs WT

TGTTGATACAACCATTAAATGGTAATTCCACCCAAATATTGATAATTATCACACCCA (double strand) [Right end ORF3c]
binding signal (log2 fold vs WT) (second replicate -1.89): -2.49

ACATTTGTTGATACAACCATAAAATGATAATAACACCCATAAATTGATAATTATCACACCCATAAATTGATATTGCCTCTGATCATAGTCAGACCAACATTGCTACGACCCGTATTCGCACCGACAC (double strand) [Right end variant 990]
binding signal (log2 fold vs WT) (second replicate 1.0127): 0.854

ACATTTGTTGATACAACCATAAAATGATAATTACACCCATAAATTGATAATTATCACACCCATAAATTGATATTGCCTCTGATCATAATTGTTATCCGCTCACAATTCCAGTCAGACGCACCGACAC (double strand) [Right end hyperactive 2694]
binding signal: 1.89 fold vs WT

ACATTTGTTGATACAACCATAAAATGATAATTACACCCATAAATTGATAATTATCACACCCATAAATTGATATTGCCTCTGATCATATTTAATAATTAATTTATATATTTAAGTCAGGCACCGACAC (double strand) [Right end hyperactive 2691]
binding signal: 2.63 fold vs WT

AATGTTGTTGAAACAACCATAAAGTGATAACAACGAATCAATTAAAATCATAGGCTTAATCGAAAAACAACCATATCTTGATATCGCATAAAACAACCATAAGTTGATATTTTGGTGAAAAGGATATTCCAACCTTCATAGTTTAGTAAGAA (double strand) [Left end hyperactive 4668]
binding signal: 1.76 fold vs WT

AATGTTGTTGATGCAACCATAAAGTGATATTTAATAATTATTTATAATCAGCAACTTAACCACAAAACAACCATATATTGATATCTCACAAAACACCCATAAGTTGATATTTTTGTGAATCGAGTATTTCAGCAAAACTACTGCAGTAAGAA (double strand) [Left end variant 3195]
binding signal (log2 fold vs WT) (second replicate 0.7256): 0.722

TGTTGATACAACCATCAAATGGTAATTACACCCATAAATTGATAATTATCACACCCA (double strand) [Right end ORF3a]
binding signal (log2 fold vs WT) (second replicate -0.05): -0.64

TTTTGTGTTGATGCAACCATAAAGTGATAACAACGAATCAATTAAAATCATAGGCTTAATCGAAAAACAACCATATCTTGATATCGCATAAAACAACCATAAGTTGATATTTTGGTGAAAAGGATATTCCAACCTTCATAGTTTAGTAAGAA (double strand) [Left end hyperactive 4671]
binding signal: 1.55 fold vs WT

TTTTGTGTTGAAACAACCATAAAGTGATAACAACGAATCAATTAAAATCATAGGCTTAATCGAAAAACAACCATATCTTGATATCGCATAAAACAACCATAAGTTGATATTTTTGTGAATAGGATATTCCAACCTTCATAGTTTAGTAAGAA (double strand) [Left end hyperactive 4670]
binding signal: 1.67 fold vs WT

ACATTTGTTGATACAACCATAAAATGATAATTATACCCATAAATTGATAATTATCACACCCATAAATTGATATTGCCTCTGATCATAGTCAGACCAACATTGCTACGACCCGTATTCGCACCGACAC (double strand) [Right end variant 985]
binding signal (log2 fold vs WT) (second replicate -1.2264): -1.42

TTTTGTGTTGAAACAACCATAAAGTGATATTTACGAATCAATTAAAATCATAGGCTTAATCGAAAAACAACCATATCTTGATATCGCATAAAACAACCATAAGTTGATATTTTGGTGAAAAGGATATTCCAACCTTCATAGTTTAGTAAGAA (double strand) [Left end hyperactive 4667]
binding signal: 2.07 fold vs WT

ACATTTGGTGATACAACCATAAAATGATAATTACACCCATAAATTGATAATTATCACACCCATAAATTGATATTGCCTCTGATCATAGTCAGACCAACATTGCTACGACCCGTATTCGCACCGACAC (double strand) [Right end variant 1063]
binding signal (log2 fold vs WT) (second replicate -5.3052): -6.47

ACATTAGTTGATACAACCATAAAATGATAATTACACCCATAAATTGATAATTATCACACCCATAAATTGATATTGCCTCTGATCATAGTCAGACCAACATTGCTACGACCCGTATTCGCACCGACAC (double strand) [Right end variant 1068]
binding signal (log2 fold vs WT) (second replicate -5.4441): -6.17

TGTGGATCCAACCATAAAATGATAATTACACCCATAAATGGATCATTATCACACCCA (double strand) [Right end ORF1c]
binding signal (log2 fold vs WT) (second replicate -1.51): -2.06

ACATTTGTTGATACAACCATAAAATGATAATTACACCCATAAATTGATAATTATCACACCCATAAATTGATATTGCCTCTCAGACCACATAGCTGCCATGTCCTGATCGGACGGACCGCACCGACAC (double strand) [Right end hyperactive 2701]
binding signal: 1.7 fold vs WT

TGTGGATACAACCATAAAACGATAATTACACCCATAAATGGATCATTATCACACCCA (double strand) [Right end ORF1b]
binding signal (log2 fold vs WT) (second replicate): -2.03

ACATTTGTTGATACAACCATAAAATGATAATTACACCCATAAATTGATAATTATCACACCCATAAATTGATATTGCCTCTCCGACCCGGAAGAGGGCGCCTAGAATTGGGAGTGGTCGCACCGACAC (double strand) [Right end hyperactive 2700]
binding signal: 1.72 fold vs WT

TGTTGATACAACCATAAAAGGATTATTACACCCATTAATTGATAATTATCACACCCA (double strand) [Right end ORF2a]
binding signal (log2 fold vs WT) (second replicate -1.82): -2.22

TTTTGTGTTGAAACAACCATAAAGTGATAACAACGAATCAATTAAAATCATAGGCTTAATCGAAAAACAACCATATCTTGATATCGCACAAAACAACCATAAGTTGATATTTTGGTGAAAAGGATATTCCAACCTTCATAGTTTAGTAAGAA (double strand) [Left end hyperactive 4672]
binding signal: 1.54 fold vs WT

ACATTTGTTGATACAACCATAAAATGATAATTACACCCATAAATTGATAATTATCACACCCATAAATTGATATTGCCTCTGATCATAAATATATAAATTAATTATTAAATTAGTCAGGCACCGACAC (double strand) [Right end hyperactive 2692]
binding signal: 2.24 fold vs WT

ACATTTGTTGATACAACCATAAAATGATAATTACACCCATAAATTGATAATTATCACACCCATAAATTGATATTGCCTCTGATCAAATTGTGAGCGGATAACAATTTAGTCAGACCAGCACCGACAC (double strand) [Right end hyperactive 2695]
binding signal: 1.82 fold vs WT

AATGTTGTTGATGCAACCATAAAGTGATATTTAATAATTATTTATAATCAGCAACTTAACCACAAAACAACCAGATATTGATATCTCACAAAACAACCATAAGTTGATATTTTTGTGAATCGAGTATTTCAGCAAAACTACTGCAGTAAGAA (double strand) [Left end variant 3260]
binding signal (log2 fold vs WT) (second replicate -0.7874): -1.91

AATGTTGTTGATGCAACCATAAAGTGATATTTAATAATTATTTATAATCAGCAACTTAACCACAAAACAACCATATATTGATATCTCACAAAACAACCATAAGTTCATATTTTTGTGAATCGAGTATTTCAGCAAAACTACTGCAGTAAGAA (double strand) [Left end variant 3165]
binding signal (log2 fold vs WT) (second replicate -1.3719): -2.25

ACATTTGTTGATACAACCATAAAATGATAATTACACCCATAAATTGATAATTATCACACCCATAAATTGATATTGCCTCTGGCGCTCTGTACCCCGCTCGGTCCTCCCGCGCATCGCGCACCGACAC (double strand) [Right end hyperactive 2698]
binding signal: 1.59 fold vs WT

TGTTGATACAACCATTAAATGATAATTCCACCCATAATTTGATAATTATCACACCCA (double strand) [Right end ORF3b]
binding signal (log2 fold vs WT) (second replicate -0.65): -0.84

ACATTTGTTGATACAACCATAAAATGATAATTACACCCATAAATTGATAATTATCACACCCATACCTTGATATTGCCTCTGATCATAGTCAGACCAACATTGCTACGACCCGTATTCGCACCGACAC (double strand) [Right end variant 1100]
binding signal (log2 fold vs WT) (second replicate 1.4027): 1.3
